Broadly, the Kd is a measure of binding affinity in units of concentration. In general, stoichiometry N refers to the number of molecules, sites or subunits per partner or assembly. By koff is commonly meant a measure of how fast the partners let go of each other. Read a high koff as a short-lived complex. One may read the kon as a measure of how fast the partners come together. Higher therefore signals fast association.

Here are results for four substances from paper PMC5349899.

Experiment [1] has as its target TGF-β2 (in the calorimeter cell). Briefly: ITC; ER or RER (50-110 µM) in the syringe, TGF-β2 (5-8 µM) in the cell; 10 mM sodium phosphate pH 7.4, 30 mM CHAPS; 37°C; Microcal PEAQ-ITC.
The target of experiment [2] is biotinylated avi-tagged TGF-β2 (human). In words: SPR; biotinylated avi-tagged TGF-β2 or TGF-β3 captured on streptavidin-coated CM5 chip at 50-80 RU; analytes injected as two-fold dilution series in HBS-EP at 100 µL/min (150 s); BIAcore 3000; global fit to a simple 1:1 model.
Experiment [3] addresses biotinylated avi-tagged TGF-β3 (human). Described as above.
In experiment [4] the target is TGF-β1.

In the case of “ER receptor trap (betaglycan endoglin domain-TβRII; rat BG-human TβRII receptor fusion) (designed binder)”, in experiment [1], the Kd amounted to 215 nM and the stoichiometry N was 1.05 sites. Moreover, in experiment [2], the Kd turned out to be 1.44 nM, the koff worked out at 0.000438 s⁻¹ and the kon was found to be 307000 M⁻¹ s⁻¹. In experiment [3], this substance had a Kd of 0.0505 nM, a koff of 1.97e-05 s⁻¹ and a kon of 391000 M⁻¹ s⁻¹.

Consider “RER receptor trap (TβRII-betaglycan endoglin domain-TβRII) (designed binder)”, for which, in experiment [1], the Kd was 128 nM and the stoichiometry N was found to be 1.1 sites. In experiment [2], this substance yielded a koff of 0.000253 s⁻¹ and a kon of 307000 M⁻¹ s⁻¹. Moreover, in experiment [3], the Kd is 0.0244 nM, the koff worked out at 9.44e-06 s⁻¹ and the kon was found to be 387000 M⁻¹ s⁻¹.

In experiment [2], “betaglycan endoglin domain (BGE) (domain or fragment)” registered a Kd of 30.6 nM, a koff of 0.00466 s⁻¹ and a kon of 152000 M⁻¹ s⁻¹. Besides, in experiment [3], the Kd amounted to 94.6 nM, the koff worked out at 0.0124 s⁻¹ and the kon was 131000 M⁻¹ s⁻¹.

Take “bivalent TGF-β receptor trap ER (BGE-RII) (from UniProt P37173 23-166)”: in experiment [4], the IC50 of inhibition of PAI-1 luciferase reporter activity in Mv1Lu mink lung epithelial cells induced with 20 pM TGF-β1 stood at 14 pM; the reduction of Smad2 phosphorylation (Western blot) in MCF-10A cells stimulated with 2 pM TGF-β1 in the presence of 0, 0.01, 0.1, 1 and 10 nM ER amounted to 30%.
